Assay results reported in article PMC12582157.

Columns and labels:
[1] = molecular target: T1, β-conglutin (Lupinus albus (white lupin)?) (UniProt Q53HY0); assay: MST; conditions: Binding buffer, salt, pH and temperature not given in the material
T1 sequence: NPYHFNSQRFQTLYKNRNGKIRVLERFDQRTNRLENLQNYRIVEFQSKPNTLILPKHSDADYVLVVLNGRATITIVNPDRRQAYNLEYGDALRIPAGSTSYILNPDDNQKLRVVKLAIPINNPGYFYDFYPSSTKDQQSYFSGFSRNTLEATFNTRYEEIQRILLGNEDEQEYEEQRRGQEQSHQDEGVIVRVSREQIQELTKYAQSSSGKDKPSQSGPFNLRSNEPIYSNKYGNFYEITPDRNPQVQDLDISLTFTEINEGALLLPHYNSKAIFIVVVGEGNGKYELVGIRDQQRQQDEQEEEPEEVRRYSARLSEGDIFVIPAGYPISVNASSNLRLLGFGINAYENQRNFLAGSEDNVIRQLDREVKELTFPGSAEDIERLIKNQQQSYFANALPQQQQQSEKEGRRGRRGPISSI

[2] = molecular target: T1, β-conglutin (Lupinus albus (white lupin)?); assay: ELAA; conditions: Binding buffer, salt, pH and temperature not given in the material
[3] = molecular target: T1, β-conglutin (Lupinus albus (white lupin)?); assay: BLI; conditions: 1:1 model, Binding buffer, salt
[4] = molecular target: T1, β-conglutin (Lupinus albus (white lupin)?); assay: SPR; conditions: dA outside the 5' primer region (nt 24-94) replaced by indole-modified dA (dAEIn); Binding buffer, salt, pH and temperature not given in the material
[5] = all dA = dAEIn, 5' dC carries Cy5
[6] = dA outside the 5' primer region (nt 24-94) replaced by indole-modified dA (dAEIn)

“CCAAGATCTCGCGAGTTCCCAACAGGGCAGAGAGATGCCCGACACCAGTG [HB8_T3]” showed a Kd [1, 5] of 145 nM.
“AGCTCCAGAAGATAAATTACAGGCAAGATCACCGTAGACGCGTCGAGAAGTGTGAGATCCTATGAAATGACCGCAACTAGGATACTATGACCCC [HB7]” gave a Kd ([2]; dA outside 5' primer = dAEIn) of 1.1 nM.
“CCAAGATCTCGCGAGTTCCCAACAGGGCAGAGAGATGCCCGACACCAGTGCAACTAGGATACTATGACCCC [HB8_T2]” showed a Kd [1, 5] of 256 nM.
“AGCTCCAGAAGATAAATTACAGGCCAAGATCTCGCGAGTTCCCAACAGGGCAGAGAGATGCCCGACACCAGTGCAACTAGGATACTATGACCCC [HB8_M2]” showed a Kd ([1]; dAEIn in nt 24-73, 3' 21 nt with natural dA) of 44 nM.
“GATAAATTACAGGCCAAGATCTCGCGAGTTCCCAACAGGGCAGAGAGATGCCCGACACCAGTGCAACTAGGATACTATGACCCC [HB8_T4]” showed a Kd ([1]; dA after the 13 nt primer remainder = dAEIn) of 24 nM.
For “AGCTCCAGAAGATAAATTACAGGCCAAGATCTCGCGAGTTCCCAACAGGGCAGAGAGATGCCCGACACCAGTGCAACTAGGATACTATGACCCC [HB8_M1]”, the Kd ([1]; dAEIn as in HB8 except three central positions following the primer, which are natural dA) was 134 nM.
“AGCTCCAGAAGATAAATTACAGGCCAAGATCTCGCGAGTTCCCAACAGGGCAGAGAGATGCCCGACACCAGTG [HB8_T1]” showed a Kd ([1]; dA in nt 24-73 = dAEIn) of 42 nM and a Kd ([3]; dA in nt 24-73 = dAEIn, pH and temperature not given in the material) of 0.6 nM.
For “AGCTCCAGAAGATAAATTACAGGCCAAGATCTCGCGAGTTCCCAACAGGGCAGAGAGATGCCCGACACCAGTGCAACTAGGATACTATGACCCC [HB8]”, the Kd [1, 6] was 41 nM, the Kd [4] was 92 nM and the Kd ([3]; dA outside the 5' primer region (nt 24-94) replaced by indole-modified dA (dAEIn), pH and temperature not given in the …) was 0.9 nM. For the same sequence, the Kd [2, 6] was 0.6 nM.
